Biological target: the molecule itself
Test: non-reducing SDS-PAGE with Western blot; lysates of stably transfected HEK293 cells denatured in sample buffer with or without a reducing agent; blotted with anti-HA

Protein | stoichiometry N
HA-tagged WT Endoglin (receptor, UniProt P17813 26-658, looked up, Endoglin (CD105), wild type, encoded by ENG; Seen as a dimer on a non-reducing gel; also called Endoglin WT; ENG-WT; source: HEK293, stably transfected (pcDNA3.0), in lysate) ETVHCDLQPVGPERGEVTYTTSQVSKGCVAQAPNAILEVHVLFLEFPTGPSQLELTLQASKQNGTWPREVLLVLSVNSSVFLHLQALGIPLHLAYNSSLVTFQEPPGVNTTELPSFPKTQILEWAAERGPITSAAELNDPQSILLRLGQAQGSLSFCMLEASQDMGRTLEWRPRTPALVRGCHLEGVAGHKEAHILRVLPGHSAGPRTVTVKVELSCAPGDLDAVLILQGPPYVSWLIDANHNMQIWTTGEYSFKIFPEKNIRGFKLPDTPQGLLGEARMLNASIVASFVELPLASIVSLHASSCGGRLQTSPAPIQTTPPKDTCSPELLMSLIQTKCADDAMTLVLKKELVAHLKCTITGLTFWDPSCEAEDRGDKFVLRSAYSSCGMQVSASMISNEAVVNILSSSSPQRKKVHCLNMDSLSFQLGLYLSPHFLQASNTIEPGQQSFVQVRVSPSVSEFLLQLDSCHLDLGPEGGTVELIQGRAAKGNCVSLLSPSPEGDPRFSFLLHFYTVPIPKTGTLSCTVALRPKTGSQDQEVHRTVFMRLNIISPDLSGCTSKGLVLPAVLGITFGAFLIGALLTAALWYIYSHTRSPSKREPVVAVAAPASSESSSTNHSIGSTQSTPCSTSSMA | 2
HA-tagged Endoglin mutant variant P165L (receptor, UniProt P17813 26-658, looked up, Endoglin (CD105) with the HHT1 disease-causing missense variant P165L, made by site directed mutagenesis; Retained in the ER; also called ENG-P165L; p; P165L; source: HEK293, stably transfected (pcDNA3.0), in lysate) ETVHCDLQPVGPERGEVTYTTSQVSKGCVAQAPNAILEVHVLFLEFPTGPSQLELTLQASKQNGTWPREVLLVLSVNSSVFLHLQALGIPLHLAYNSSLVTFQEPPGVNTTELPSFPKTQILEWAAERGPITSAAELNDLQSILLRLGQAQGSLSFCMLEASQDMGRTLEWRPRTPALVRGCHLEGVAGHKEAHILRVLPGHSAGPRTVTVKVELSCAPGDLDAVLILQGPPYVSWLIDANHNMQIWTTGEYSFKIFPEKNIRGFKLPDTPQGLLGEARMLNASIVASFVELPLASIVSLHASSCGGRLQTSPAPIQTTPPKDTCSPELLMSLIQTKCADDAMTLVLKKELVAHLKCTITGLTFWDPSCEAEDRGDKFVLRSAYSSCGMQVSASMISNEAVVNILSSSSPQRKKVHCLNMDSLSFQLGLYLSPHFLQASNTIEPGQQSFVQVRVSPSVSEFLLQLDSCHLDLGPEGGTVELIQGRAAKGNCVSLLSPSPEGDPRFSFLLHFYTVPIPKTGTLSCTVALRPKTGSQDQEVHRTVFMRLNIISPDLSGCTSKGLVLPAVLGITFGAFLIGALLTAALWYIYSHTRSPSKREPVVAVAAPASSESSSTNHSIGSTQSTPCSTSSMA | 2
HA-tagged Endoglin mutant variant V105D (receptor, UniProt P17813 26-658, looked up, Endoglin (CD105) with the HHT1 disease-causing missense variant V105D, made by site directed mutagenesis; Retained in the ER; also called ENG-V105D; p; V105D; source: HEK293, stably transfected (pcDNA3.0), in lysate) ETVHCDLQPVGPERGEVTYTTSQVSKGCVAQAPNAILEVHVLFLEFPTGPSQLELTLQASKQNGTWPREVLLVLSVNSSDFLHLQALGIPLHLAYNSSLVTFQEPPGVNTTELPSFPKTQILEWAAERGPITSAAELNDPQSILLRLGQAQGSLSFCMLEASQDMGRTLEWRPRTPALVRGCHLEGVAGHKEAHILRVLPGHSAGPRTVTVKVELSCAPGDLDAVLILQGPPYVSWLIDANHNMQIWTTGEYSFKIFPEKNIRGFKLPDTPQGLLGEARMLNASIVASFVELPLASIVSLHASSCGGRLQTSPAPIQTTPPKDTCSPELLMSLIQTKCADDAMTLVLKKELVAHLKCTITGLTFWDPSCEAEDRGDKFVLRSAYSSCGMQVSASMISNEAVVNILSSSSPQRKKVHCLNMDSLSFQLGLYLSPHFLQASNTIEPGQQSFVQVRVSPSVSEFLLQLDSCHLDLGPEGGTVELIQGRAAKGNCVSLLSPSPEGDPRFSFLLHFYTVPIPKTGTLSCTVALRPKTGSQDQEVHRTVFMRLNIISPDLSGCTSKGLVLPAVLGITFGAFLIGALLTAALWYIYSHTRSPSKREPVVAVAAPASSESSSTNHSIGSTQSTPCSTSSMA | 2

From publication PMC8916587, “Endoglin Wild Type and Variants Associated With Hereditary Hemorrhagic Telangiectasia Type 1 Undergo Distinct Cellular Degradation Pathways” (Frontiers in Molecular Biosciences, 2022)
